Experimental data reported in US20250114463A1, “LIVER-TARGETED DRUG AND USE THEREOF” (HANMI PHARM. CO., LTD., priority 2021, published 2025).
Bridges are numbered along the chain shown (N, C = ends). Where no end group is shown, it is not given here. [ ]: non-standard residue; d: D form. Aib = CC(C)(N)C(=O)O

B1: triple agonist of SEQ ID NO: 33 (peptide)
peptide: H[Aib]QGTFTSDYSIAMDEIHQKDFVNWLLAQKC
modifications: bridge 16-20; not fully specified (C-terminus)
B2: triple agonist of SEQ ID NO: 32 (peptide)
peptide: H[Aib]QGTFTSDYSKYLDEKACKDFVQWLLDGGPSSGAPPPS
modifications: bridge 16-20; not fully specified (C-terminus)

Columns and labels:
Test in all cases: cell-based or functional assay
human GLP-1 receptor = human GLP-1 receptor (human, UniProt P43220 24-463)
human GCG receptor = human GCG receptor (human, UniProt P47871 26-477)
human GCG receptor, sequence (P47871 26-477): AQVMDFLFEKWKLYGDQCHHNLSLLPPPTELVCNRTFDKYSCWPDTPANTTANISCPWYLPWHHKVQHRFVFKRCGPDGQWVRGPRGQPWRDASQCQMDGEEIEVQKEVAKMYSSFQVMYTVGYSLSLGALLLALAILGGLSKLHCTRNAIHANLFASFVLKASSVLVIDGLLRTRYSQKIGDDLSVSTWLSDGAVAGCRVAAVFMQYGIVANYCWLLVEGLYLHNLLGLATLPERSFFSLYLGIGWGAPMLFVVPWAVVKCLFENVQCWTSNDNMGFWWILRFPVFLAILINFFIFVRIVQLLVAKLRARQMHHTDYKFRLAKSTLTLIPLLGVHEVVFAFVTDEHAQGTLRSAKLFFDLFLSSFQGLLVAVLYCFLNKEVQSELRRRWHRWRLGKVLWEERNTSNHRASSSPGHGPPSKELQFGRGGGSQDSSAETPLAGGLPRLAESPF

human GIP receptor = molecular target: T1, human GIP receptor (human, UniProt P48546 22-466)
T1 sequence (looked up): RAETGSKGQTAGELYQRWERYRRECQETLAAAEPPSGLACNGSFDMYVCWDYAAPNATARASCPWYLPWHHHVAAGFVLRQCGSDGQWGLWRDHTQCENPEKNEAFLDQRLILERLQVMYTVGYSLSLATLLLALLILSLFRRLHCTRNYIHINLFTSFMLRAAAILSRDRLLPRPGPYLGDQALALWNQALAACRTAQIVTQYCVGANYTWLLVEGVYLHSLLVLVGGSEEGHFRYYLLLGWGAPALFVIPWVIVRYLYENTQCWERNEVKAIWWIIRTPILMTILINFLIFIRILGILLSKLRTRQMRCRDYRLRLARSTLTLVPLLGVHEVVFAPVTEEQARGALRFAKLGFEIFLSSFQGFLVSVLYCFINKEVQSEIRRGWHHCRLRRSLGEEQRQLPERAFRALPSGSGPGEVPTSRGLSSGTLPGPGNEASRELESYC

Row | Binder | in vitro Activity Compared to Native Peptide (%), vs GLP-1 (human GLP-1 receptor) | in vitro Activity Compared to Native Peptide (%), vs Glucagon (human GCG receptor) | in vitro Activity Compared to Native Peptide (%), vs GIP (human GIP receptor)
1 | B1 | 24.5% | < 0.1% | 10.4%
2 | B2 | 151% | 1.7% | 8.8%
